Experimental data as given in the supplement of paper PMC10567573.

B1: ZNF8 (parent)
chain: RIHTGERPYMCKECGKAFSQNSSL
B2: CD69 (parent)
chain: FVAENSSLHPESGQENDATSPHFS

Variants of: B1
Assay: protein stability index of a GFP-peptide fusion (GPS, HEK-293T) (PSI 1-6); higher = more stable
Settings: c terminus: a fixed tail appended
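Note: lentivirally expressed fusions sorted by FACS into six bins by GFP to DsRed ratio, PSI derived from sequencing read proportions per bin multiplied by bin number.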

| Variant | protein stability index |
| --- | --- |
| RIHTGERPYMCKECGKAFIQNSSL [S19I] | 2.01 |
| RIHTGERPYMCKECGKAFDQNSSL [S19D] | 3.09 |
| RIHTGERPYMCKECGKAFMQNSSL [S19M] | 2.24 |
| RIHTGERPYMCKECGKAFLQNSSL [S19L] | 3.17 |
| RIHTGERPYMCKECGKAFFQNSSL [S19F] | 2.02 |
| RIHTGERPYMCKECGKAFWQNSSL [S19W] | 1.47 |
| RIHTGERPYMCKECGKAESQNSSL [F18E] | 3.64 |
| RIHTGERPYMCKECGKAVSQNSSL [F18V] | 2.83 |
| RIHTGERPYMCKECGKATSQNSSL [F18T] | 2.85 |
| RIHTGERPYMCKECGKAHSQNSSL [F18H] | 3.59 |
| RIHTGERPYMCKECGKANSQNSSL [F18N] | 3.83 |
| RIHTGERPYMCKECGKACSQNSSL [F18C] | 3.03 |
| RIHTGERPYMCKECGKAFSQNYSL [S22Y] | 1.8 |
| RIHTGERPYMCKECGKAFSQNLSL [S22L] | 2.05 |
| RIHTGERPYMCKECGKAFSQNDSL [S22D] | 2.4 |
| RIHTGERPYMCKECGKAFSQNFSL [S22F] | 1.89 |
| RIHTGERPYMCKECGKAFSQNKSL [S22K] | 2.4 |
| RIHTGERPYMCKECGAAFSQNSSL [K16A] | 2.24 |
| RIHTGERPYMCKECGYAFSQNSSL [K16Y] | 1.61 |
| RIHTGERPYMCKECGSAFSQNSSL [K16S] | 2.05 |
| RIHTGERPYMCKECGTAFSQNSSL [K16T] | 2.73 |

| Variant | protein stability index |
| --- | --- |
| RIHTGERPYMCKECGLAFSQNSSL [K16L] | 1.71 |
| RIHTGERPYMCKECGWAFSQNSSL [K16W] | 2.66 |
| RIHTGDRPYMCKECGKAFSQNSSL [E6D] | 2.28 |
| RIHTGFRPYMCKECGKAFSQNSSL [E6F] | 2.44 |
| RIHTGTRPYMCKECGKAFSQNSSL [E6T] | 2.36 |
| RIHTGCRPYMCKECGKAFSQNSSL [E6C] | 1.68 |
| RIHTGSRPYMCKECGKAFSQNSSL [E6S] | 1.33 |
| RIHTGQRPYMCKECGKAFSQNSSL [E6Q] | 2.2 |
| RIHTGKRPYMCKECGKAFSQNSSL [E6K] | 2.35 |
| RIHTGEMPYMCKECGKAFSQNSSL [R7M] | 2.77 |
| RIHTGEEPYMCKECGKAFSQNSSL [R7E] | 3.85 |
| RIHTGEFPYMCKECGKAFSQNSSL [R7F] | 2.99 |
| RIHTGECPYMCKECGKAFSQNSSL [R7C] | 3.77 |
| RIHTGEVPYMCKECGKAFSQNSSL [R7V] | 2.37 |
| RIHTGEWPYMCKECGKAFSQNSSL [R7W] | 2.9 |
| RIHTGETPYMCKECGKAFSQNSSL [R7T] | 4 |
| RIHTGEQPYMCKECGKAFSQNSSL [R7Q] | 3.2 |
| RIHTGENPYMCKECGKAFSQNSSL [R7N] | 3.38 |
| RIHTGERPYMCKICGKAFSQNSSL [E13I] | 1.88 |
| RIHTGERPYMCKYCGKAFSQNSSL [E13Y] | 1.92 |
| RIHTGERPYMCKTCGKAFSQNSSL [E13T] | 1.96 |

| Variant | protein stability index |
| --- | --- |
| RIHTGERPYMCKLCGKAFSQNSSL [E13L] | 2.3 |
| RIHTGERPYMCKMCGKAFSQNSSL [E13M] | 2.05 |
| RIHTGERPYMCKKCGKAFSQNSSL [E13K] | 1.78 |
| RIHTGERPYMCKQCGKAFSQNSSL [E13Q] | 2.24 |
| RIHTGERPYMCKACGKAFSQNSSL [E13A] | 2.08 |
| RIHTGERPYMPKECGKAFSQNSSL [C11P] | 2.84 |
| RIHTGERPYMNKECGKAFSQNSSL [C11N] | 2.81 |
| RIHTGERPYMSKECGKAFSQNSSL [C11S] | 2.99 |
| RIHTGERPYMQKECGKAFSQNSSL [C11Q] | 3.04 |
| RIHTGERPYMRKECGKAFSQNSSL [C11R] | 2.67 |
| RIHTGERPYMMKECGKAFSQNSSL [C11M] | 2.82 |
| RIHTGERPYMGKECGKAFSQNSSL [C11G] | 3.28 |
| IIHTGERPYMCKECGKAFSQNSSL [R1I] | 2.77 |
| HIHTGERPYMCKECGKAFSQNSSL [R1H] | 3.56 |
| TIHTGERPYMCKECGKAFSQNSSL [R1T] | 3.22 |
| SIHTGERPYMCKECGKAFSQNSSL [R1S] | 3.19 |
| GIHTGERPYMCKECGKAFSQNSSL [R1G] | 3.34 |
| NIHTGERPYMCKECGKAFSQNSSL [R1N] | 2.85 |
| DIHTGERPYMCKECGKAFSQNSSL [R1D] | 2.71 |
| YIHTGERPYMCKECGKAFSQNSSL [R1Y] | 2.2 |

Variants of: B2
Assay: as above
Settings: c terminus: a fixed tail appended

| Variant | protein stability index |
| --- | --- |
| FVHENSSLHPESGQENDATSPHFS [A3H] | 3.03 |
| FVAEGSSLHPESGQENDATSPHFS [N5G] | 3.21 |
| FVAEKSSLHPESGQENDATSPHFS [N5K] | 2.69 |
| FVAENSSLHPESGQWNDATSPHFS [E15W] | 1.95 |
| FVAENSSLHPESGQENDATSIHFS [P21I] | 2.65 |
| FVAENSSLHPESGQENDATSEHFS [P21E] | 3.97 |
| FVAENSSLHPESGQENDATSSHFS [P21S] | 2.98 |
| SVAENSSLHPESGQENDATSPHFS [F1S] | 5.4 |
| MVAENSSLHPESGQENDATSPHFS [F1M] | 5.49 |
| GVAENSSLHPESGQENDATSPHFS [F1G] | 5.41 |
| FWAENSSLHPESGQENDATSPHFS [V2W] | 4.86 |
| FVAENSSLPPESGQENDATSPHFS [H9P] | 3.6 |
| FVAENSSLRPESGQENDATSPHFS [H9R] | 2.79 |
| FVAENSSLGPESGQENDATSPHFS [H9G] | 3.4 |
| FVAENSSLHPESGYENDATSPHFS [Q14Y] | 2.4 |
| FVAENSSLHPESGDENDATSPHFS [Q14D] | 3.93 |

| Variant | protein stability index |
| --- | --- |
| FVAENSSLHPESGQENMATSPHFS [D17M] | 2.46 |
| FVAENSSLHPESGQENDATSPHGS [F23G] | 3.58 |
| FVAENSSLHPERGQENDATSPHFS [S12R] | 2.38 |
| FVAENSSLHPEIGQENDATSPHFS [S12I] | 2.86 |
| FVAENSSLHPESGQENDATIPHFS [S20I] | 3.02 |
| FVAENSSLHPESGQENDATRPHFS [S20R] | 2.45 |
| FVAENSSLHPESGQEYDATSPHFS [N16Y] | 2.72 |
| FVAENSSLHPESGQESDATSPHFS [N16S] | 3.19 |
| FVAENSSLHPESGQENDYTSPHFS [A18Y] | 2.23 |
| FVAENSSLHPESGQENDTTSPHFS [A18T] | 2.79 |
| FVAENSSLHPESGQENDATSPHFA [S24A] | 3.55 |
| FVAENVSLHPESGQENDATSPHFS [S6V] | 2.48 |
| FVAENNSLHPESGQENDATSPHFS [S6N] | 2.69 |
| FVAENWSLHPESGQENDATSPHFS [S6W] | 2.07 |
| FVAENISLHPESGQENDATSPHFS [S6I] | 2.38 |
| FVAENTSLHPESGQENDATSPHFS [S6T] | 3.34 |
